Assay results: publication PMC3236778

Assays:
[1] = molecular target: GkDnaC helicase, wild-type (replicative helicase of Geobacillus kaustophilus HTA426) (Geobacillus kaustophilus HTA426); experiment: SEC; size-exclusion column during purification; data not shown
[2] = molecular target: GkDnaC R420A mutant (arginine finger) (Geobacillus kaustophilus HTA426); experiment: as above
[3] = molecular target: GkDnaC K309A mutant (Geobacillus kaustophilus HTA426); experiment: as above
[4] = molecular target: GkDnaC helicase, wild-type (replicative helicase of Geobacillus kaustophilus HTA426) (Geobacillus kaustophilus HTA426)

Molecule “GkDnaC helicase, wild-type (replicative helicase of Geobacillus kaustophilus HTA426) (enzyme)” has a stoichiometry N [1] of 6.

For “GkDnaC R420A mutant (arginine finger) (enzyme)”, the stoichiometry N [2] was 6.

GkDnaC K309A mutant (enzyme) showed a stoichiometry N [3] of 6.

Molecule “GkDnaI helicase loader (natural protein)” has an ATPase activity of the GkDnaC-GkDnaI complex (NADH-coupled assay) [4] of 18.1 µM/min and an unwinding efficiency (fold, against GkDnaC alone), gel shift assay of fork DNA unwinding [4] of 0.15 fold.

B1: GkDnaG primase, full-length wild-type (enzyme)
chain: MGHRIPEETIEAIRRGVDIVDVIGEYVQLKKQGRNYFGLCPFHGEKTPSFSVSPEKQIFHCFGCGAGGNAFTFLMDIEGIPFVEAAKRLAAKAGIDLSAYELDSRGSDGSRADEAKAMVEAHTLLKRFYHHLLVHTKEGQAALDYLQVRGWTKETIDRFEIGYAPDVPDAAVRLLESRSFPLVLMEKAGLLVKKEDGRYVDRFRNRIMFPIHDHRGETVGFSGRLLGDGQPKYMNSPETPIFRKGTLLYFFHEARVSIRKRQEALLVEGFADVISAVQAGVDYVVATMGTSLTEEQARILRRHAETVTICYDGDSAGTEAAWRAAEQLSAFGCRVKVALLPDGLDPDEYIRTCGADRFAEEIAAARPLMAFKMDRLRRGKNLQEEGDRLRYIEEALREISKLSSPVEKDYYMRQLADEFSLSLSALYEQLSRSKPEQPKPQVNDGGKPVRPALTKKLLPAFQNAERLLLAHMMRSRDVAFIVQEQVGGRFNIEEHRALAAYIYAFYEEGHEADPSALMSRLPGELRTLASELSLLLVADDVSDRELADCIRHVLNHPKWLMLKEKEQEKTEAERRKDFLTAARIAKEMIEMKKMLSSS
For B1, the ATPase activity of the GkDnaC-GkDnaG complex (NADH-coupled assay) [4] was 79.5 µM/min, the unwinding efficiency (fold, against GkDnaC alone), gel shift assay of fork DNA unwinding [4] was 1.45 fold and the unwinding velocity of the GkDnaC-GkDnaG complex (smTPM) [4] was 7.44 bp/s.
